For data set [1], the system named is tumor cells. The data set is described as follows: internalization of Alexa-fluor labeled HAMLET (confocal microscopy). In kind it is cell-based. Particulars: HAMLET 35 μM, 1 hour. As to the method: FIG. 2. Ion channel inhibitors rescue carcinoma cells from death and block HAMLET uptake and morphologic change. (A) Viability of lung carcinoma cells after exposure to HAMLET (21 or 35 μM, 3 h), quantified by trypan blue exclusion. […] (B) BaCl2 and amiloride prevented carcinoma cells from changing their morphology in response to HAMLET (Mean of two images in one experiment+SEMs). (C) Internalization of Alexa-fluor labeled HAMLET by tumor cells (35 μM, 1 hour), visualized by confocal microscopy. […] GAPDH was the loading control. (E) The transcriptomic response to HAMLET requires functional ion channels.
For live cell imaging, cells were pre-treated with SB202190 for 30 minutes, nuclei were stained with Hoechst 33342 (Invitrogen) and Alexa-Fluor 568-labeled HAMLET (10% labeled HAMLET, Molecular Probes) was added in serum-free medium. FCS was added after 1 hour. Fluorescence was detected with pinhole settings corresponding to 1 airy unit. The cells were kept at 37° C., 5% CO2 and examined unfixed by LSM510 DUO confocal microscopy (Carl Zeiss).

Data set [2] deals with p38, HSP27 in healthy, differentiated kidney cells. The data set is described as follows: MAPK phosphorylation in healthy cells. In kind it is cell-based, human.
Data set [3] deals with kidney carcinoma (A498) cells. The data set is described as follows: extended microarray analysis (Illumina HumanHT-12). In kind it is cell-based, human. The protocol:
(§1) For the extended microarray analysis, gene expression was assessed by whole genome Illumina microarrays (HumanHT-12 Expression BeadChip). Data was normalized using cross-correlation (Chua et al., 2006 Nucleic Acids Research 34: e38). Genes with a log 2 fold change ≧1.2 in tumor cells and ≧2.0 in healthy, differentiated cells at any time point were regarded as differentially expressed (Benjamini-Hochberg adjusted p-value <0.05).
(§2) To identify the pathways that execute tumor cell death downstream of the ion channels, we further examined the global transcriptional responses to HAMLET in human lung carcinoma (A549) and kidney carcinoma (A498) cells over an extended period of 15 min to 24 hours. The p38 MAPK signaling pathway was identified as a top-scoring canonical pathway in A549 cells (FIG. 4A).
(§3) To examine the molecular basis of the difference in HAMLET susceptibility between carcinoma cells and healthy, differentiated cells, transcriptional profiles were compared. […] These cytokines were not secreted by the carcinoma cells.

The test system of data set [4] is healthy, differentiated pediatric kidney cells. The data set is described as follows: extended microarray analysis (Illumina HumanHT-12). The format is cell-based, human. The protocol:
as §1, §3

Data set [5] concerns bladder cancer. Particulars: mouse, in vivo; cited from earlier work.
Data set [6] deals with human lung carcinoma (A549) cells. The data set is described as follows: extended microarray analysis (Illumina HumanHT-12). The format is cell-based. The protocol: as §1, §2
The test system of a further data set is skin papillomas. To be noted: topical administration, placebo controlled; cited from earlier work.
Data set [7] deals with bladder cancer. Particulars: local instillations; cited from earlier work.
In data set [8] the test system is tumor cells. The data set is described as follows: Tumoricidal Activity of Oleate-HAMLET (cell death method of Example 1). In kind it is cell-based. To be noted: 0.5 mg/ml.
Procedure: Cells were detached from cell culture flasks with versen (0.2 g EDTA in 200 ml H2O and 800 ml PBS), washed with PBS and resuspended in serum-free RPMI-1640. HAMLET dissolved in PBS was incubated with cells (0.5×10^6/ml for A549, A498 and HeLa cells; 1×10^6/ml for Jurkat) at 37° C. FCS was added after 1 hour. Cell death was quantified by trypan blue exclusion (Chroma Gesellschaft Schmid & Co) or by measuring ATP levels (ATPlite Kit, PerkinElmer, Infinite 200, Tecan).
The subject of data set [9] is Human renal tubular epithelial cells (HRTEC). The experiment in a line: Ca^2+ and K^+ levels in healthy, differentiated cells in primary culture. The format is cell-based. To be noted: HAMLET 35 μM. The protocol:
Human renal tubular epithelial cells (HRTEC) were preincubated with Fluo-4 as described, exposed to HAMLET (35 μM) and examined by real time confocal microscopy.
To further characterize ion channel activation by HAMLET, carcinoma cells were pretreated with defined channel blockers. Amiloride is a sodium channel inhibitor with effects on mechanosensitive channels, barium chloride (BaCl2) is a general K^+ channel inhibitor, gadolinium chloride (GdCl3) inhibits mechanosensitive channels, Ruthenium red is a general Ca^2+ inhibitor and tetrandrine inhibits large conductance, Ca^2+ activated K^+ channels. The carcinoma cells were preincubated with Fluo-4 as described above, pretreated with each of the channel inhibitors for 30 minutes, exposed to HAMLET (35 μM) and examined by real time confocal imaging. Furthermore, cells treated with EGTA were compared to cells with intact extracellular Ca^2+ levels, to distinguish the early peak from the subsequent influx of Ca^2+ (FIG. 1B, Table in FIG. 8).

A further data set deals with glioblastoma xenograft. To be noted: rat, in vivo; cited from earlier work.

Consider three molecules from patent publication US9487561B2, “Biologically active complex and its preparation” (HAMLET PHARMA AB, priority 2010, dated 2016).

Turning to `NC(N)=NC(=O)c1nc(Cl)c(N)nc1N` [amiloride, 3,5-diamino-6-chloro-N-(diaminomethylene)pyrazine-2-carboxamide], the “effect of inhibitor on internalization of HAMLET” value with tumor cells [1] was “inhibited internalization”.

`[Ba+2].[Cl-].[Cl-]` [BaCl2, barium chloride]: the “effect of inhibitor on internalization of HAMLET” value with tumor cells [1] is on record as “inhibited internalization”.

B1: HAMLET (protein, UniProt P00709 20-142, looked up)
Alpha-lactalbumin: KQFTKCELSQLLKDIDGYGGIALPELICTMFHTSGYDTQAIVENNESTEYGLFQISNKLWCKSSQVPQSRNICDISCDKFLDDDITDDIMCAKKILDIKGIDYWLAHKALCTEKLEQWLCEKL
modifications: oleic acid complex
As to B1, the “phosphorylation of p38, its isoforms, or HSP27” value in [2] is recorded as “no phosphorylation of p38, its isoforms, or HSP27”. Besides, the “number of genes responding to HAMLET” value in [3] is reported as 4424 genes. Further, the “number of genes responding to HAMLET” value in data set [4] was 2064 genes. Besides, the “therapeutic efficacy in bladder cancer” value with bladder cancer [5] is on record as “Therapeutic efficacy”. In [6], the DUSP1 upregulation is 1.34 log 2-fold change and the DUSP10 upregulation is recorded as 1.98 log 2-fold change. Besides, in data set [6] (adjusted p-value <0.05), the “number of genes with minimum log 2-fold change of 1.2 compared to PBS-treated control cells” value is “Three hundred sixty-seven”. Also, the “effect on skin papillomas” value with skin papillomas was “removed or reduced the size of skin papillomas”. Further, in the data set on bladder cancer [7], the “death of tumor cells vs healthy tissue” value is “caused rapid death of tumor cells but not of healthy tissue surrounding the tumor”. Besides, in the data set with tumor cells [8] (Control 88), the Trypan blue turned out to be 8. The same molecule displayed an ATP Activity in the data set with tumor cells [8] (Control 100) of 21%. In data set [9], the “Ca^2+ response in HRTECs” value was “weak and transient Ca^2+ response”; the “duration of Ca^2+ response in HRTECs” value is recorded as “about 90 seconds”. Further, in the data set on glioblastoma xenograft, the “cell death in healthy brain tissue” value is reported as “without evidence of cell death in healthy brain tissue”; the “tumor progression and survival” value is “delayed tumor progression and led to increased survival”.
